Test results taken from the supplement of paper PMC10724198.
± gives the standard deviation of the averaged measurements.

What was measured:
Saccharomyces cerevisiae [1] = assay: protein stability index of tFT-peptide fusion (C-terminal peptide) (PSI (0-1 scale)); higher = more stable (slower turnover); settings: genetic background: wild type; temperature: 30 C
Saccharomyces cerevisiae [2] = assay: as above
Method: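 MPS profiling in S. cerevisiae of the tFT-X12 degron library: putative degron peptides plus stable controls, 12 aa, fused to the C-terminus of a sfGFP-mCherry timer. Cells are FACS-sorted into 8 mCherry/sfGFP bins and deep-sequenced. PSI runs from 0 (unstable) to 1 (stable). Backgrounds are wild type, das1Δ and doa10Δ at 30 °C, and wild type, das1Δ, cdc34-1 and cdc53-1 at 37 °C; 2-3 technical replicates each.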

[3] = genetic background: cdc34-1, temperature: 37 C
[4] = genetic background: cdc53-1, temperature: 37 C
[5] = genetic background: das1 deletion, temperature: 30 C
[6] = genetic background: das1 deletion, temperature: 37 C
[7] = genetic background: doa10 deletion, temperature: 30 C
[8] = genetic background: wild type, temperature: 30 C
[9] = genetic background: wild type, temperature: 37 C
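Further: PSI is a weighted mean of sequencing reads over stability bins, variants kept only with over 10 reads, mCherry proximal and sfGFP distal, peptide attached via GGGS linker.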

Sequence | protein stability index (Saccharomyces cerevisiae [1]) | protein stability index (Saccharomyces cerevisiae [2]; [3]) | protein stability index (Saccharomyces cerevisiae [2]; [4]) | protein stability index (Saccharomyces cerevisiae [2]; [5]) | protein stability index (Saccharomyces cerevisiae [2]; [6]) | protein stability index (Saccharomyces cerevisiae [2]; [7]) | protein stability index (Saccharomyces cerevisiae [2]; [8]) | protein stability index (Saccharomyces cerevisiae [2]; [9])
PHLDLYRLSALI | 0.47 ± 0.0056 | 0.705 ± 0.01 | 0.751 ± 0.016 | 0.668 ± 0.032 | 0.79 ± 0.012 | 0.329 ± 0.031 | 0.366 ± 0.021 | 0.57 ± 0.021
PHPPRPPCPPIL | 0.74 ± 0.019 | 0.673 ± 0.041 | 0.736 ± 0.015 | 0.674 ± 0.0068 | 0.721 ± 0.0074 | 0.699 ± 0.037 | 0.678 ± 0.015 | 0.699 ± 0.0093
PHVSALSRDPES | 0.716 ± 0.018 | 0.698 ± 0.038 | 0.728 ± 0.0092 | 0.649 ± 0.021 | 0.7247 ± 0.0027 | 0.65 ± 0.025 | 0.662 ± 0.017 | 0.701 ± 0.016
PISNMSIILLFL | 0.48 ± 0.04 | 0.495 ± 0.072 | 0.595 ± 0.043 | 0.439 ± 0.028 | 0.593 ± 0.016 | 0.378 ± 0.018 | 0.391 ± 0.015 | 0.556 ± 0.027
PLFFGVQAFGGV | 0.7335 ± 0.0045 | 0.727 ± 0.026 | 0.79052 ± 0.0004 | 0.664 ± 0.029 | 0.7644 ± 0.0042 | 0.669 ± 0.033 | 0.679 ± 0.014 | 0.7622 ± 0.0021
PLPCFVLRLPVF | 0.402 ± 0.02 | 0.39 ± 0.037 | 0.429 ± 0.033 | 0.298 ± 0.031 | 0.465 ± 0.0064 | 0.267 ± 0.011 | 0.304 ± 0.024 | 0.4379 ± 0.0024
PLPSEKAPTLLL | 0.583 ± 0.15 | 0.686 ± 0.019 | 0.735 ± 0.01 | 0.637 ± 0.0092 | 0.736 ± 0.036 | 0.636 ± 0.027 | 0.6384 ± 0.0045 | 0.718 ± 0.0072
PLPSFLYFILLR | 0.44 ± 0.079 | 0.22 ± 0.062 | 0.196 ± 0.024 | 0.333 ± 0.03 | 0.396 ± 0.024 | 0.524 ± 0.035 | 0.357 ± 0.012 | 0.359 ± 0.044
PLRKYLRHLLSL | 0.218 ± 0.055 | 0.59822 ± 0.00032 | 0.7453 ± 0.0022 | 0.647 ± 0.022 | 0.735 ± 0.036 | 0.1635 ± 0.0013 | 0.159 ± 0.012 | 0.285 ± 0.0041
PLRRPPPRPPWP | 0.494 ± 0.036 | 0.65 ± 0.025 | 0.7054 ± 0.0032 | 0.674 ± 0.024 | 0.7032 ± 0.003 | 0.69 ± 0.03 | 0.644 ± 0.025 | 0.687 ± 0.011
PLSPTNLSRLLS | 0.339 ± 0.015 | 0.658 ± 0.034 | 0.7642 ± 0.0043 | 0.651 ± 0.012 | 0.744 ± 0.0077 | 0.1987 ± 0.0011 | 0.234 ± 0.037 | 0.526 ± 0.033
PPGSPPGSLRPT | 0.78 ± 0.025 | 0.67 ± 0.038 | 0.715 ± 0.027 | 0.664 ± 0.026 | 0.713 ± 0.013 | 0.662 ± 0.029 | 0.665 ± 0.036 | 0.703 ± 0.013
PPHRTLLQLRTN | 0.343 ± 0.18 | 0.599 ± 0.072 | 0.728 ± 0.035 | 0.661 ± 0.022 | 0.727 ± 0.0085 | 0.169 ± 0.021 | 0.164 ± 0.02 | 0.313 ± 0.015
PPPAPPLSMPAP | 0.0173 ± 0.0038 | 0.647 ± 0.064 | 0.73 ± 0.027 | 0.665 ± 0.014 | 0.718 ± 0.026 | 0.671 ± 0.021 | 0.681 ± 0.022 | 0.6928 ± 0.0055
PPPLCSTCIRCC | 0.293 ± 0.0083 | 0.197 ± 0.035 | 0.206 ± 0.038 | 0.224 ± 0.027 | 0.354 ± 0.0097 | 0.175 ± 0.0021 | 0.205 ± 0.019 | 0.274 ± 0.013
PPQDQAPVGVND | 0.474 ± 0.064 | 0.672 ± 0.041 | 0.7509 ± 0.0024 | 0.619 ± 0.019 | 0.74 ± 0.0071 | 0.623 ± 0.03 | 0.644 ± 0.038 | 0.7007 ± 0.0022
PPRCLLPPPSRS | 0.79 ± 0.015 | 0.652 ± 0.034 | 0.699 ± 0.014 | 0.694 ± 0.015 | 0.693 ± 0.0092 | 0.72 ± 0.05 | 0.692 ± 0.012 | 0.678 ± 0.009
PPRDPGGLFTPF | 0.71756 ± 0.00059 | 0.732 ± 0.017 | 0.7854 ± 0.0062 | 0.679 ± 0.0077 | 0.7763 ± 0.003 | 0.703 ± 0.022 | 0.674 ± 0.028 | 0.767 ± 0.039
PPSPAPLPDSLP | 0.7006 ± 0.0066 | 0.662 ± 0.036 | 0.6995 ± 0.0011 | 0.684 ± 0.038 | 0.715 ± 0.017 | 0.693 ± 0.015 | 0.691 ± 0.021 | 0.696 ± 0.0075
PPSPPLLFHFPP | 0.586 ± 0.15 | 0.669 ± 0.049 | 0.756 ± 0.013 | 0.661 ± 0.0077 | 0.7367 ± 0.005 | 0.661 ± 0.022 | 0.658 ± 0.018 | 0.7058 ± 0.007
PPTLLPPLHPAP | 0.64 ± 0.23 | 0.681 ± 0.056 | 0.725 ± 0.0045 | 0.663 ± 0.011 | 0.7217 ± 0.005 | 0.666 ± 0.028 | 0.688 ± 0.038 | 0.731 ± 0.023
PTLPASLHSIYP | 0.768 ± 0.024 | 0.654 ± 0.03 | 0.72 ± 0.031 | 0.684 ± 0.028 | 0.698 ± 0.021 | 0.687 ± 0.03 | 0.6731 ± 0.0056 | 0.6917 ± 0.0027
PTYSCSIKIQAH | 0.427 ± 0.031 | 0.539 ± 0.037 | 0.537 ± 0.037 | 0.407 ± 0.03 | 0.5503 ± 0.0049 | 0.339 ± 0.01 | 0.366 ± 0.022 | 0.517 ± 0.02
PWGSHLYYVVCI | 0.339 ± 0.023 | 0.168 ± 0.026 | 0.228 ± 0.011 | 0.238 ± 0.03 | 0.3371 ± 0.0028 | 0.183 ± 0.013 | 0.221 ± 0.035 | 0.315 ± 0.016
PWWDALLRARVC | 0.163 ± 0.025 | 0.429 ± 0.033 | 0.6 ± 0.054 | 0.435 ± 0.021 | 0.625 ± 0.019 | 0.103 ± 0.013 | 0.115 ± 0.022 | 0.159 ± 0.0039
PYVHPFRCYWVL | 0.193 ± 0.029 | 0.589 ± 0.032 | 0.717 ± 0.027 | 0.621 ± 0.02 | 0.7396 ± 0.0015 | 0.128 ± 0.01 | 0.138 ± 0.0077 | 0.181 ± 0.016
QCSPGLPHAQGL | 0.565 ± 0.15 | 0.692 ± 0.025 | 0.71 ± 0.015 | 0.634 ± 0.024 | 0.733 ± 0.014 | 0.657 ± 0.028 | 0.666 ± 0.039 | 0.708 ± 0.013
QGPHISQYRTHR | 0.706 ± 0.0037 | 0.67 ± 0.022 | 0.7226 ± 0.0053 | 0.6413 ± 0.0052 | 0.745 ± 0.025 | 0.676 ± 0.0068 | 0.673 ± 0.014 | 0.728 ± 0.0094
QHRAIKIEIKIN | 0.091 ± 0.0089 | 0.439 ± 0.024 | 0.666 ± 0.018 | 0.571 ± 0.048 | 0.672 ± 0.02 | 0.0613 ± 0.035 | 0.0582 ± 0.013 | 0.0578 ± 0.011
QVLISLYVHGYF | 0.501 ± 0.008 | 0.551 ± 0.053 | 0.5374 ± 0.0037 | 0.453 ± 0.047 | 0.51 ± 0.017 | 0.388 ± 0.011 | 0.426 ± 0.02 | 0.519 ± 0.019
